Data taken from patent publication CN112979797A (CHINESE ACAD INSPECTION & QUARANTINE, dated 2021).

Molecular target: T1, 原核表达的带HIS标签的重组蛋白SBV-N (SBV, UniProt H2AM13 1-233)
T1 sequence: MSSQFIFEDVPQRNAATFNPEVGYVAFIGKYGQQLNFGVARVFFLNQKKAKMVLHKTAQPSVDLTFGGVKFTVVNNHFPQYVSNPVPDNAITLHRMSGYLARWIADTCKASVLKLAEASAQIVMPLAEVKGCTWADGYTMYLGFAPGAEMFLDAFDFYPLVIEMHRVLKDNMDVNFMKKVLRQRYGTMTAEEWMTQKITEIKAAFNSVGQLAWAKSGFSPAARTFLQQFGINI
Experiment: Western blot, hybridoma supernatant on His-tagged recombinant protein

B1: 单克隆抗体2D3 (antibody, V domains shown)
VH: EVQLQQSKTELVRSGASVKLSCTASGFNIKDYFIHWVKQRPEQGLEWIGWIDPENGDTEYAPKFQGKATMTADTSSNTAYLQLGSLTSEDTAVYYCYSRGWHLENLEYWGQGTTLTVSS
VL: DVLMTQTPLSLPVSLGDQASISCRSSQSIVHSNGNTYLEWYLQKPGQSPKLLIYKVSNRFSGVPDRFSGSGSGTDFTLKISRVEAEDLGVYYCFQGSHVPRTFGGGTKLEIKR
notes: also called 2D3单抗; 2D3抗体
binding result: no binding
